According to patent publication US20230250461A1:

What was measured:
[1] = target: IvaP from Vibrio cholerae, the alkaline serine protease corresponding to the gene VC 0157 (purified) (Vibrio cholerae); assay: cell-based or functional assay
[2] = target: IvaP from Vibrio cholerae, the alkaline serine protease corresponding to the gene VC 0157 (purified) (Vibrio cholerae); assay: solvatochromic dye fluorescence, plate reader; I9-dye conjugate 3 µM, IvaP 1 µM (FIG. 7A)
[3] = target: IvaP from Vibrio cholerae, the alkaline serine protease corresponding to the gene VC 0157 (purified) (Vibrio cholerae); assay: solvatochromic dye fluorescence, multi-well plate reader; probe 3 µM, IvaP 1 µM preincubated with PMSF (FIG. 9B)

| Substance | decrease in fluorescence intensity [1] | relative fluorescence change (Fbound/Funbound) [2] | increase in fluorescence intensity [3] |
| --- | --- | --- | --- |
| I9 E123C-MDCC conjugate (peptide) | 4 fold | – | – |
| I9 I128C-IANBD conjugate (peptide) | – | 2 fold | 2 fold |
